# Molecular target: T1, hPRLR-mmH (SEQ ID NO:406) (Homo sapiens, UniProt P16471)
# T1 construct: this experiment was conducted with a truncated form of PRLR (i.e., hPRLR-mmH)
# Assay: Epitope mapping by hydrogen/deuterium exchange with MALDI-TOF MS
# Format: binding
# Procedure: Experiments were conducted to determine the amino acid residues of PRLR with which H1H6958N2 interacts. For this purpose hydrogen/deuterium (H/D) exchange epitope mapping was carried out. A general description of the H/D exchange method is set forth in e.g., Ehring (1999) Analytical Biochemistry 267(2):252-259; and Engen and Smith (2001) Anal. Chem. 73:256A-265A.
# To map the binding epitope(s) of antibody H1H6958N2 on hPRLR via H/D exchange, a construct comprising a recombinant extracellular domain of hPRLR with a C-terminal myc-myc-hexahistidine tag (hPRLR-mmH; SEQ ID NO: SEQ ID NO:406) was buffer exchanged to PBS with a final concentration of 8 mg/mL, and antibody H1H6958N2 was covalently attached to N-hydroxysuccinimide (NHS) agarose beads (GE Lifescience)
# In the ‘on-solution/off-beads’ (on-exchange in solution followed by off-exchange on beads) experiment, the hPRLR was deuterated for 5 min or 10 min in PBS buffer prepared with D2O, and then bound to H1H6958N2 beads through a 2 min incubation. The hPRLR-bound beads were washed with PBS aqueous buffer (prepared with H2O) and incubated PBS buffer for half of the on-exchange time. After the off-exchange, the bound hPRLR was eluted from beads with an ice-cold low pH TFA solution. The eluted hPRLR was then digested with immobilized pepsin (Thermo Scientific) for 5 min. The resulting peptides were desalted using ZipTip® chromatographic pipette tips and immediately analyzed by UltrafleXtreme matrix assisted laser desorption ionization time of flight (MALDI-TOF)-TOF mass spectrometry (MS).
# In the ‘on-beads/off-beads’ (on-exchange on beads followed by off-exchange on beads) experiment, hPRLR was first bound to H1H6958N2 beads and then incubated for 5 min or 10 min in D2O for on-exchange. The following steps (off-exchange, pepsin digestion, and MS analysis) were carried out as described for the ‘on-solution/off-beads’ procedure. The centroid values or average mass-to-charge ratios (m/z) of all the detected peptides were calculated and compared between these two sets of experiments.
# The results are summarized in Table 29 which provides a comparison of the centroid m/z values for all the detected peptides identified by liquid chromatography and MS following the H/D exchange and peptic digest procedure described above. For purposes of the present Example, a positive difference (A) of at least 0.20 m/z in both experiments indicates amino acids protected by antibody binding. Segments meeting this criterion are indicated by bold text and an asterisk (*) in Table 29. [Note that, although this experiment was conducted with a truncated form of PRLR (i.e., hPRLR-mmH; SEQ ID NO: 406), residue numbering in the far left column of Table 29 has been adjusted to correspond to the amino acid sequence of the full-length PRLR protein represented by SEQ ID NO: 404.]
# [1] = hPRLR peptide residues 61-71 of SEQ ID NO: 404, Experiment I 5 min on-/2.5 min off-exchange
# [2] = hPRLR peptide residues 61-71 of SEQ ID NO: 404, Experiment II 10 min on-/5 min off-exchange
# [3] = hPRLR peptide residues 64-71 of SEQ ID NO: 404, Experiment I 5 min on-/2.5 min off-exchange
# [4] = hPRLR peptide residues 64-71 of SEQ ID NO: 404, Experiment II 10 min on-/5 min off-exchange
# [5] = hPRLR peptide residues 64-72 of SEQ ID NO: 404, Experiment I 5 min on-/2.5 min off-exchange
# [6] = hPRLR peptide residues 64-72 of SEQ ID NO: 404, Experiment II 10 min on-/5 min off-exchange
# [7] = hPRLR peptide residues 72-94* of SEQ ID NO: 404 (* = protected by antibody binding), Experiment I 5 min on-/2.5 min off-exchange
# [8] = hPRLR peptide residues 72-94* of SEQ ID NO: 404 (* = protected by antibody binding), Experiment II 10 min on-/5 min off-exchange
# [9] = hPRLR peptide residues 72-95* of SEQ ID NO: 404 (* = protected by antibody binding), Experiment I 5 min on-/2.5 min off-exchange
# [10] = hPRLR peptide residues 72-95* of SEQ ID NO: 404 (* = protected by antibody binding), Experiment II 10 min on-/5 min off-exchange
# [11] = hPRLR peptide residues 96-101* of SEQ ID NO: 404 (* = protected by antibody binding), Experiment I 5 min on-/2.5 min off-exchange
# [12] = hPRLR peptide residues 96-101* of SEQ ID NO: 404 (* = protected by antibody binding), Experiment II 10 min on-/5 min off-exchange
# [13] = hPRLR peptide residues 96-102* of SEQ ID NO: 404 (* = protected by antibody binding), Experiment I 5 min on-/2.5 min off-exchange
# [14] = hPRLR peptide residues 96-102* of SEQ ID NO: 404 (* = protected by antibody binding), Experiment II 10 min on-/5 min off-exchange
# [15] = hPRLR peptide residues 133-147 of SEQ ID NO: 404, Experiment I 5 min on-/2.5 min off-exchange
# [16] = hPRLR peptide residues 133-147 of SEQ ID NO: 404, Experiment II 10 min on-/5 min off-exchange
# [17] = hPRLR peptide residues 134-147 of SEQ ID NO: 404, Experiment I 5 min on-/2.5 min off-exchange
# [18] = hPRLR peptide residues 134-147 of SEQ ID NO: 404, Experiment II 10 min on-/5 min off-exchange
# [19] = hPRLR peptide residues 135-147 of SEQ ID NO: 404, Experiment I 5 min on-/2.5 min off-exchange
# [20] = hPRLR peptide residues 135-147 of SEQ ID NO: 404, Experiment II 10 min on-/5 min off-exchange
# [21] = hPRLR peptide residues 136-147 of SEQ ID NO: 404, Experiment I 5 min on-/2.5 min off-exchange
# [22] = hPRLR peptide residues 136-147 of SEQ ID NO: 404, Experiment II 10 min on-/5 min off-exchange
# [23] = hPRLR peptide residues 137-147 of SEQ ID NO: 404, Experiment I 5 min on-/2.5 min off-exchange
# [24] = hPRLR peptide residues 137-147 of SEQ ID NO: 404, Experiment II 10 min on-/5 min off-exchange
# [25] = hPRLR peptide residues 168-179 of SEQ ID NO: 404, Experiment I 5 min on-/2.5 min off-exchange
# [26] = hPRLR peptide residues 168-179 of SEQ ID NO: 404, Experiment II 10 min on-/5 min off-exchange
# [27] = hPRLR peptide residues 168-180 of SEQ ID NO: 404, Experiment I 5 min on-/2.5 min off-exchange
# T1 sequence (P16471 with tags, fused parts or gaps): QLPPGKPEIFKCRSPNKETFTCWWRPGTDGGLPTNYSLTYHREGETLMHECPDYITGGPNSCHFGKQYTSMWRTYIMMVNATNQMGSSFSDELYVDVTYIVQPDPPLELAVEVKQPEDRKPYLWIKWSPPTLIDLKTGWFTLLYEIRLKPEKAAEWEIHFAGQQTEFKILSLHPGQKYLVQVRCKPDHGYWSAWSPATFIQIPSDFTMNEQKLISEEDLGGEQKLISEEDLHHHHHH
molecule,measurement,setting,value
"H1H6958N2: anti-PRLR antibody, receptor blocking, human IgG1 Fc form of H2M6958N2 of Table 1; HCVR/LCVR SEQ ID NOs 290/298 (antibody, V domains shown) VH: QVQLVESGGGVVQPGRSLRLSCGASGFTFRNYGMQWVRQGPGKGLEWVTLISFDGNDKYYADSVKGRFTISRDNSKNTLFLQMNSLRTEDTAVYYCARGGDFDYWGQGTLVTVSS VL: DIQMTQSPSSLSASVGDRVTITCRASQDIRKDLGWYQQKPGKAPKRLIYAASSLHSGVPSRFSGSGSGTEFTLTISSLQPEDFATYYCLQHNSYPMYTFGQGTKLEIK",epitope of PRLR with which the antibody interacts,delta centroid greater than 0.20 m/z in both experiments,amino acids 72 to 102 of SEQ ID NO: 404
same,"centroid m/z, on-beads/off-beads",[1],1306.50 m/z
same,"centroid m/z, on-solution/off beads",[1],1306.39 m/z
same,Δ (centroid m/z difference),[1],−0.10 m/z
same,"centroid m/z, on-beads/off-beads",[2],1306.38 m/z
same,"centroid m/z, on-solution/off beads",[2],1306.34 m/z
same,Δ (centroid m/z difference),[2],−0.04 m/z
same,"centroid m/z, on-beads/off-beads",[3],1005.05 m/z
same,"centroid m/z, on-solution/off beads",[3],1005.13 m/z
same,Δ (centroid m/z difference),[3],0.07 m/z
same,"centroid m/z, on-beads/off-beads",[4],1005.18 m/z
same,"centroid m/z, on-solution/off beads",[4],1005.13 m/z
same,Δ (centroid m/z difference),[4],−0.05 m/z
same,"centroid m/z, on-beads/off-beads",[5],1136.15 m/z
same,"centroid m/z, on-solution/off beads",[5],1136.16 m/z
same,Δ (centroid m/z difference),[5],0.01 m/z
same,"centroid m/z, on-beads/off-beads",[6],1136.49 m/z
same,"centroid m/z, on-solution/off beads",[6],1136.33 m/z
same,Δ (centroid m/z difference),[6],−0.16 m/z
same,"centroid m/z, on-beads/off-beads",[7],2572.17 m/z
same,"centroid m/z, on-solution/off beads",[7],2573.91 m/z
same,Δ (centroid m/z difference),[7],1.74 m/z
same,"centroid m/z, on-beads/off-beads",[8],2572.12 m/z
same,"centroid m/z, on-solution/off beads",[8],2573.74 m/z
same,Δ (centroid m/z difference),[8],1.62 m/z
same,"centroid m/z, on-beads/off-beads",[9],2703.43 m/z
same,"centroid m/z, on-solution/off beads",[9],2705.49 m/z
same,Δ (centroid m/z difference),[9],2.06 m/z
same,"centroid m/z, on-beads/off-beads",[10],2703.70 m/z
same,"centroid m/z, on-solution/off beads",[10],2705.29 m/z
same,Δ (centroid m/z difference),[10],1.60 m/z
same,"centroid m/z, on-beads/off-beads",[11],870.20 m/z
same,"centroid m/z, on-solution/off beads",[11],870.70 m/z
same,"centroid m/z, on-beads/off-beads",[12],870.20 m/z
same,"centroid m/z, on-solution/off beads",[12],870.71 m/z
same,Δ (centroid m/z difference),[12],0.52 m/z
same,"centroid m/z, on-beads/off-beads",[13],1001.22 m/z
same,"centroid m/z, on-solution/off beads",[13],1001.59 m/z
same,Δ (centroid m/z difference),[13],0.37 m/z
same,"centroid m/z, on-beads/off-beads",[14],1001.14 m/z
same,"centroid m/z, on-solution/off beads",[14],1001.62 m/z
same,Δ (centroid m/z difference),[14],0.48 m/z
same,"centroid m/z, on-beads/off-beads",[15],1786.37 m/z
same,"centroid m/z, on-solution/off beads",[15],1786.59 m/z
same,Δ (centroid m/z difference),[15],0.22 m/z
same,"centroid m/z, on-beads/off-beads",[16],1786.52 m/z
same,"centroid m/z, on-solution/off beads",[16],1786.55 m/z
same,Δ (centroid m/z difference),[16],0.02 m/z
same,"centroid m/z, on-beads/off-beads",[17],1673.29 m/z
same,"centroid m/z, on-solution/off beads",[17],1673.36 m/z
same,Δ (centroid m/z difference),[17],0.07 m/z
same,"centroid m/z, on-beads/off-beads",[18],1673.39 m/z
same,"centroid m/z, on-solution/off beads",[18],1673.50 m/z
same,Δ (centroid m/z difference),[18],0.11 m/z
same,"centroid m/z, on-beads/off-beads",[19],1602.02 m/z
same,"centroid m/z, on-solution/off beads",[19],1602.15 m/z
same,Δ (centroid m/z difference),[19],0.13 m/z
same,"centroid m/z, on-beads/off-beads",[20],1602.04 m/z
same,"centroid m/z, on-solution/off beads",[20],1602.15 m/z
same,Δ (centroid m/z difference),[20],0.11 m/z
same,"centroid m/z, on-beads/off-beads",[21],1502.88 m/z
same,"centroid m/z, on-solution/off beads",[21],1502.85 m/z
same,Δ (centroid m/z difference),[21],−0.03 m/z
same,"centroid m/z, on-beads/off-beads",[22],1502.88 m/z
same,"centroid m/z, on-solution/off beads",[22],1502.79 m/z
same,Δ (centroid m/z difference),[22],−0.09 m/z
same,"centroid m/z, on-beads/off-beads",[23],1373.68 m/z
same,"centroid m/z, on-solution/off beads",[23],1373.78 m/z
same,Δ (centroid m/z difference),[23],0.09 m/z
same,"centroid m/z, on-beads/off-beads",[24],1373.84 m/z
same,"centroid m/z, on-solution/off beads",[24],1373.80 m/z
same,Δ (centroid m/z difference),[24],−0.04 m/z
same,"centroid m/z, on-beads/off-beads",[25],1447.71 m/z
same,"centroid m/z, on-solution/off beads",[25],1447.73 m/z
same,Δ (centroid m/z difference),[25],0.02 m/z
same,"centroid m/z, on-beads/off-beads",[26],1447.78 m/z
same,"centroid m/z, on-solution/off beads",[26],1447.76 m/z
same,Δ (centroid m/z difference),[26],−0.02 m/z
same,"centroid m/z, on-beads/off-beads",[27],1633.66 m/z
same,"centroid m/z, on-solution/off beads",[27],1633.59 m/z

# From patent US10925971B2, “Methods of treating PRLR positive breast cancer” (Regeneron Pharmaceuticals, Inc., priority 2016, dated 2021)
